From patent publication US8962271B2, “Fructosyl peptidyl oxidase” (Roche Diagnostics Operations, Inc., priority 2009, dated 2015)
Where two headings read alike, the source gives them in different places. One block for each molecule: values may come before it.

What was measured:
[1] = system: fructosyl peptidyl oxidase FPOX-E (Eupenicillum terrenum ATCC 18547; GenBank: BAD00185.1); details: cited from earlier work
[2] = system: fructosyl peptidyl oxidase FPOX-C (Coniochaeta sp. NISL 9330; GenBank: BAD00186.1); details: cited from earlier work
[3] = system: CC(C)[C@H](NCC(=O)[C@@H](O)[C@H](O)[C@H](O)CO)C(=O)N[C@@H](Cc1cnc[nH]1)C(=O)O; experiment: purified protein, by the assay type; details: other: substrate FVH; apparent Km; 4A.A/TODB/POD
[4] = system: CC(C)[C@H](NCC(=O)[C@@H](O)[C@H](O)[C@H](O)CO)C(=O)O; experiment: purified protein, by the assay type; details: other: substrate FV; apparent Km; 4A.A/TODB/POD
[5] = Oxidase activity, 4AA/TODB/POD system, substrate FVH; assay type: biochemical
Protocol: (§1) The water-soluble fraction was examined for the oxidase activity using a POD/TODB/4A.A. method with three substrates: fructosyl valine (FV), fructosyl lysine (FK), and fructosyl valyl histidine (FVH).
(§2) The oxidase activity was assayed using 4A.A/TODB/POD with varying concentrations of substrates, FV, FK and FVH. The absorbance at 546 nm was monitored. Typical Michaelis-Menten curves were obtained with FV and FVH, but not with FK. […] A high VmaxKm^−1 value for FV (42.8 U mg^−1 mM^−1) indicates high specificity toward FV of this enzyme. It should be noted that VmaxKm^−1 value for FVH is also considerable (14.7 U mg^−1 mM^−1, 34% of VmaxKm^−1 for FV). This activity toward FVH of PnFPOX will be beneficial in the enzyme-based measurement of HbA1c. For comparison, the oxidase activity of known fructosyl peptidyl oxidases (FPOX-C and FPOX-E) was also included in the table (Hirokawa et al. ibid).
(§3) The oxidase activity of the fructosyl peptidyl oxidases PnFPOX and FPOX-C on a fructosyl hexapeptide (F6P: Fru-Val-His-Leu-Thr-Pro-Glu) was assayed without addition of Proteinase N. The enzyme activity was measured in a 4AA/TODB/POD system as described in Example 2, with the substrate concentration of 1 mM for FV and FVH and 5 mM for F6P.

[6] = Oxidase activity toward fructosyl hexapeptide without Proteinase N, 4AA/TODB/POD system; assay type: biochemical
Protocol: as §3

[7] = Oxidase activity, 4AA/TODB/POD system, substrate FV; assay type: biochemical
Protocol: as §1, §2, §3

[8] = Thermostability: residual activity after heat treatment; assay type: physicochemical; details: heat-treated at 50° C. for 10 minutes in 10 mM PPB (pH 7.0)
Protocol: Thermostability of PnFPOX was evaluated by incubating the purified enzyme solution in 10 mM PPB (pH 7.0) at various temperatures for 10 minutes and then measuring the residual activity. The activity of PnFPOX was maintained about 75% up to 50° C. […] (Hirokawa et al. ibid).

[9] = Oxidase activity, 4AA/TODB/POD system, substrate FK; assay type: biochemical; details: water-soluble fraction; POD/TODB/4A.A. method; in words
Protocol: as §1, §2

[10] = substrate concentration 1 mM, 4AA/TODB/POD
[11] = water-soluble fraction, POD/TODB/4A.A. method, in words

Molecule: CC(C)[C@H](NCC(=O)[C@@H](O)[C@H](O)[C@H](O)CO)C(=O)O [FV, fructosyl valine]
Km ([1]; substrate FV): 318 µM
Vmax ([1]; substrate FV): 20.6 U/mg
Km ([2]; substrate FV): 824 µM
Vmax ([2]; substrate FV): 66.0 U/mg

Molecule: fructosyl peptidyl oxidase PnFPOX from Phaeosphaeria nodorum, SEQ ID NO:1 (recombinant, purified) (Parastagonospora nodorum SN15)
Km [3]: 200 µM
Vmax [3]: 2.97 U/mg
Km [4]: 640 µM
Vmax [4]: 27.6 U/mg

Molecule: CC(C)[C@H](NCC(=O)[C@@H](O)[C@H](O)[C@H](O)CO)C(=O)N[C@@H](Cc1cnc[nH]1)C(=O)O [FVH, fructosyl valyl histidine]
Km ([1]; substrate FVH): 2760 µM
Vmax ([1]; substrate FVH): 5.43 U/mg
Km ([2]; substrate FVH): 2810 µM
Vmax ([2]; substrate FVH): 23.8 U/mg

Molecule: N[C@@H](CCCCNCC(=O)[C@@H](O)[C@H](O)[C@H](O)CO)C(=O)O [FK, fructosyl lysine]
Vmax ([1]; substrate FK): 0.42 U/mg
Km ([2]; substrate FK): 10600 µM
Vmax ([2]; substrate FK): 23.4 U/mg

VmaxKm^−1 for FVH as % of VmaxKm^−1 for FV [5]: 34%
oxidizing activity to FVH [5, 11]: showed oxidizing activity
oxidizing activity to FV [7, 11]: showed oxidizing activity
oxidizing activity to FK [9]: showed oxidizing activity
B1: PnFPOX: fructosyl peptidyl oxidase derived from Phaeosphaeria nodorum, amino acid sequence SEQ ID NO:1, recombinant from E. coli (protein, listed as Phaeosphaeria nodorum)
chain: MAPSRANTSVIVVGGGGTIGSSTALHLVRSGYTPSNVTVLDAYPIPSSQSAGNDLNKIMGVSLRNPVDLQLALEARQMWNEDELFKKFFHNTGRLDCAHGEKDIADLKSGYQALVDAGLDATNEWLDSEDEILKRMPLLSRDQIKGWKAIFSKDGGWLAAAKAINAVGEYLRDQGVRFGFYGAGSFKAPLLAEGVCIGVETVDGTRYYADKVVLAAGAWSPTLVELHEQCVSKAWVYGHIQLTPEEAARYKNSPVVYNGDVGFFFEPNEHGVIKVCDEFPGFTRFKMHQPFGAKAPKRISVPRSHAKHPTDTIPDASDVSIRRAIATFMPQFKNKKMFNQAMCWCTDTADAALLICEHPEWKNFVLATGDSGHSFKLLPNIGKHVVELLEGTLADDLAHAWRWRPGSGDALKSRRSAPAKDLADMPGWNHDKPRANL
FVH (U/mg) oxidase activity [5, 10]: 0.11 U/mg
capability of oxidizing fructosyl hexapeptide ([6]; in words): capable of oxidizing fructosyl hexapeptide
F6P (U/mg) oxidase activity ([6]; substrate concentration 5 mM, without Proteinase N): 1.3 × 10^−3 U/mg
FV (U/mg) oxidase activity [7, 10]: 1.3 U/mg
residual activity [8]: about 75%
